10 molecules from PMC3079584, “A Cytoplasmic Complex Mediates Specific mRNA Recognition and Localization in Yeast” can be followed below.

The target in series [1] is T1, She2p (Saccharomyces cerevisiae, UniProt P36068 1-246). Briefly: filter binding; range over three control RNAs; EMSA: 20 mM HEPES pH 7.8, 200 mM NaCl, 2 mM MgCl2, 2 mM DTT, 4% glycerol, 30 or 100 ug/ml yeast tRNA, 5 nM RNA, 20 C; filter binding: 20 mM HEPES pH 7.4-7.5 (7.9 with She3p), 150 mM NaCl, 2 mM MgCl2, 2 mM DTT, 30 ug/ml yeast tRNA, 0.5 nM RNA; pull-down: HNMD buffer, 4 C. Conditions: protein: recombinant; tags: GST tag (PreScission-cleaved); chain copies: 4; label: 32P; hairpin. For orientation: A gel shift assay detects complexes by their altered migration in electrophoresis.

Series [2] has as its target T2, She2p;She3p (Saccharomyces cerevisiae;Saccharomyces …, UniProt P36068;P38272 1-246;1-425, |). Briefly: EMSA; She3p constant 25 nM, She2p varied; EMSA: 20 mM HEPES pH 7.8, 200 mM NaCl, 2 mM MgCl2, 2 mM DTT, 4% glycerol, 30 or 100 ug/ml yeast tRNA, 5 nM RNA, 20 C; filter binding: 20 mM HEPES pH 7.4-7.5 (7.9 with She3p), 150 mM NaCl, 2 mM MgCl2, 2 mM DTT, 30 ug/ml yeast tRNA, 0.5 nM RNA; pull-down: HNMD buffer, 4 C. Conditions: protein: recombinant;recombinant; tags: GST tag (PreScission-cleaved);C-terminal His6; chain copies: 4;2; label: 32P; stem-loop.
Target sequence in this assay (P36068 whole entry, one chain of several): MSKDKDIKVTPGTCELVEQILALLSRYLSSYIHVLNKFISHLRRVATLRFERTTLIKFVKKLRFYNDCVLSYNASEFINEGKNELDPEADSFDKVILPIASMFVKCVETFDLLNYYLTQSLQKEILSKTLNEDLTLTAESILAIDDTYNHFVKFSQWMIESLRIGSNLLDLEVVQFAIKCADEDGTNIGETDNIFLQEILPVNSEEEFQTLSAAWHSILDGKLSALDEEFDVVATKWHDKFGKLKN

The next series deals with Puf6p (Saccharomyces cerevisiae, UniProt Q04373 2-656). Nature of the series: EMSA; EMSA: 20 mM HEPES pH 7.8, 200 mM NaCl, 2 mM MgCl2, 2 mM DTT, 4% glycerol, 30 or 100 ug/ml yeast tRNA, 5 nM RNA, 20 C; filter binding: 20 mM HEPES pH 7.4-7.5 (7.9 with She3p), 150 mM NaCl, 2 mM MgCl2, 2 mM DTT, 30 ug/ml yeast tRNA, 0.5 nM RNA; pull-down: HNMD buffer, 4 C. Conditions: protein: recombinant, tags: GST tag (cleaved for EMSA; retained in GST pull-downs), label: 32P.

Series [3] has as its target T3, She3p (Saccharomyces cerevisiae, UniProt P38272 1-425).
T3 sequence: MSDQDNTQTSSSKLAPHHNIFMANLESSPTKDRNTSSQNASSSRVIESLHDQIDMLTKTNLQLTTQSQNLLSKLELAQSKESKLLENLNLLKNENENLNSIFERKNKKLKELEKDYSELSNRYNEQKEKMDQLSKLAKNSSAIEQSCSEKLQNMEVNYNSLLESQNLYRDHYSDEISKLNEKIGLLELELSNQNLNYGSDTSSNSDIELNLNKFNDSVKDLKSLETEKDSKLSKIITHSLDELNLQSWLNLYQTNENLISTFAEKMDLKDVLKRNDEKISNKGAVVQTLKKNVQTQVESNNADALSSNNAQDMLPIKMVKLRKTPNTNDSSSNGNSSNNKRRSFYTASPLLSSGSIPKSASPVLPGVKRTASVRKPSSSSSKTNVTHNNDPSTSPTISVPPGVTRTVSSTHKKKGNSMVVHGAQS
The series is described as above. The following applies: protein: recombinant; tags: C-terminal His6; label: 32P; stem-loop.

For series [4], the target named is T3, She3p. Nature of the series: EMSA; subtle shift at 25 nM She3p; EMSA: 20 mM HEPES pH 7.8, 200 mM NaCl, 2 mM MgCl2, 2 mM DTT, 4% glycerol, 30 or 100 ug/ml yeast tRNA, 5 nM RNA, 20 C; filter binding: 20 mM HEPES pH 7.4-7.5 (7.9 with She3p), 150 mM NaCl, 2 mM MgCl2, 2 mM DTT, 30 ug/ml yeast tRNA, 0.5 nM RNA; pull-down: HNMD buffer, 4 C. Conditions: protein: recombinant; tags: C-terminal His6; label: 32P; stem-loop.

In series [5] the target is T2, She2p;She3p. Briefly: EMSA; She3p constant 25 nM; Kd stated as in similar range; EMSA: 20 mM HEPES pH 7.8, 200 mM NaCl, 2 mM MgCl2, 2 mM DTT, 4% glycerol, 30 or 100 ug/ml yeast tRNA, 5 nM RNA, 20 C; filter binding: 20 mM HEPES pH 7.4-7.5 (7.9 with She3p), 150 mM NaCl, 2 mM MgCl2, 2 mM DTT, 30 ug/ml yeast tRNA, 0.5 nM RNA; pull-down: HNMD buffer, 4 C. The following applies: protein: recombinant;recombinant; tags: GST tag (PreScission-cleaved);C-terminal His6; chain copies: 4;2; label: 32P; stem-loop.
Target sequence in this assay (P36068 whole entry, chain 1 of 2, one chain of several): as the sequence (P36068 whole entry, one chain of several) above

Series [6] deals with T1, She2p. Briefly: UV cross-linking; EMSA: 20 mM HEPES pH 7.8, 200 mM NaCl, 2 mM MgCl2, 2 mM DTT, 4% glycerol, 30 or 100 ug/ml yeast tRNA, 5 nM RNA, 20 C; filter binding: 20 mM HEPES pH 7.4-7.5 (7.9 with She3p), 150 mM NaCl, 2 mM MgCl2, 2 mM DTT, 30 ug/ml yeast tRNA, 0.5 nM RNA; pull-down: HNMD buffer, 4 C. Conditions: protein: recombinant; tags: GST tag (PreScission-cleaved); chain copies: 4; label: 32P; stem-loop.

Series [7] deals with T3, She3p. The series is described as above. The following applies: protein: recombinant; tags: C-terminal His6; label: 32P; stem-loop.
The target in a further series is She2p (ΔC);She3p (Saccharomyces cerevisiae;Saccharomyces …, UniProt P36068;P38272 1-240;1-425, |). Briefly: size-exclusion chromatography; EMSA: 20 mM HEPES pH 7.8, 200 mM NaCl, 2 mM MgCl2, 2 mM DTT, 4% glycerol, 30 or 100 ug/ml yeast tRNA, 5 nM RNA, 20 C; filter binding: 20 mM HEPES pH 7.4-7.5 (7.9 with She3p), 150 mM NaCl, 2 mM MgCl2, 2 mM DTT, 30 ug/ml yeast tRNA, 0.5 nM RNA; pull-down: HNMD buffer, 4 C. The following applies: protein: recombinant;recombinant; tags: GST tag (PreScission-cleaved);C-terminal His6; stem-loop.

Series [8] deals with T2, She2p;She3p. Briefly: size-exclusion chromatography; pull-down; EMSA: 20 mM HEPES pH 7.8, 200 mM NaCl, 2 mM MgCl2, 2 mM DTT, 4% glycerol, 30 or 100 ug/ml yeast tRNA, 5 nM RNA, 20 C; filter binding: 20 mM HEPES pH 7.4-7.5 (7.9 with She3p), 150 mM NaCl, 2 mM MgCl2, 2 mM DTT, 30 ug/ml yeast tRNA, 0.5 nM RNA; pull-down: HNMD buffer, 4 C. Conditions: protein: recombinant;recombinant; tags: GST tag (PreScission-cleaved);C-terminal His6; chain copies: 4;2; stem-loop. A general note: In gel filtration, larger molecules generally elute earlier.
Target sequence in this assay (P36068 whole entry, one chain of several): as the sequence (P36068 whole entry, one chain of several) above

The target in the next series is She2p (ΔhE) (Saccharomyces cerevisiae, UniProt P36068 1-246, del174-183). Nature of the series: size-exclusion chromatography; binary co-complex; EMSA: 20 mM HEPES pH 7.8, 200 mM NaCl, 2 mM MgCl2, 2 mM DTT, 4% glycerol, 30 or 100 ug/ml yeast tRNA, 5 nM RNA, 20 C; filter binding: 20 mM HEPES pH 7.4-7.5 (7.9 with She3p), 150 mM NaCl, 2 mM MgCl2, 2 mM DTT, 30 ug/ml yeast tRNA, 0.5 nM RNA; pull-down: HNMD buffer, 4 C. The following applies: protein: recombinant; tags: GST tag (PreScission-cleaved); chain copies: 2; stem-loop.

A further series deals with Puf6p;She2p (Saccharomyces cerevisiae;Saccharomyces …, UniProt Q04373;P36068 2-656;1-246, |). Nature of the series: pull-down; GST-Puf6p immobilized; EMSA: 20 mM HEPES pH 7.8, 200 mM NaCl, 2 mM MgCl2, 2 mM DTT, 4% glycerol, 30 or 100 ug/ml yeast tRNA, 5 nM RNA, 20 C; filter binding: 20 mM HEPES pH 7.4-7.5 (7.9 with She3p), 150 mM NaCl, 2 mM MgCl2, 2 mM DTT, 30 ug/ml yeast tRNA, 0.5 nM RNA; pull-down: HNMD buffer, 4 C. Conditions: protein: recombinant;recombinant; tags: GST tag (cleaved for EMSA; retained in GST pull-downs);GST tag (PreScission-cleaved); copies: 1;4; stem-loop.

The target of a further series is Puf6p;She2p;She3p (Saccharomyces cerevisiae;Saccharomyces …, UniProt Q04373;P36068;P38272 2-656;1-246;1-425, ||). Nature of the series: pull-down; His-She3p or GST-Puf6p immobilized; EMSA: 20 mM HEPES pH 7.8, 200 mM NaCl, 2 mM MgCl2, 2 mM DTT, 4% glycerol, 30 or 100 ug/ml yeast tRNA, 5 nM RNA, 20 C; filter binding: 20 mM HEPES pH 7.4-7.5 (7.9 with She3p), 150 mM NaCl, 2 mM MgCl2, 2 mM DTT, 30 ug/ml yeast tRNA, 0.5 nM RNA; pull-down: HNMD buffer, 4 C. Conditions: protein: recombinant;recombinant;recombinant; tags: GST tag (cleaved for EMSA; retained in GST pull-downs);GST tag (PreScission-cleaved);C-terminal His6; stem-loop.
Puf6p;She2p;She3p, sequence (Q04373 2-656, chain 1 of 2): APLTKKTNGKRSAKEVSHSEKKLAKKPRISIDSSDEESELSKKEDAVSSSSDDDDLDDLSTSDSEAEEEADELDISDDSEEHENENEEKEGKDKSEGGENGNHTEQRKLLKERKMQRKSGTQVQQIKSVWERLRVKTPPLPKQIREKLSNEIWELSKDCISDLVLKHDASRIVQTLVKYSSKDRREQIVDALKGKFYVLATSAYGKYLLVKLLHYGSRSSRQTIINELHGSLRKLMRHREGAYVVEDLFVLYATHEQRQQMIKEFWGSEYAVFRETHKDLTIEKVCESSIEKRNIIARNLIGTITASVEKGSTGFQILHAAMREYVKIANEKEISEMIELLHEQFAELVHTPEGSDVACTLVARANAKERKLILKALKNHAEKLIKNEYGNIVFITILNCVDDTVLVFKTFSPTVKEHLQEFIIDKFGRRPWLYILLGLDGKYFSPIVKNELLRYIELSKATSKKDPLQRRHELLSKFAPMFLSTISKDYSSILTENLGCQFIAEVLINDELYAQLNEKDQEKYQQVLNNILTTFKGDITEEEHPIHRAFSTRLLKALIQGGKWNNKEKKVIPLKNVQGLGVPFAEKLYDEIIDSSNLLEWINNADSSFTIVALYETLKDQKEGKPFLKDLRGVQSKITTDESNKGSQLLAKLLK
Puf6p;She2p;She3p, sequence (P36068 whole entry, chain 2 of 2): as the sequence (P36068 whole entry, one chain of several) above

T1 sequence (P36068 whole entry): as the sequence (P36068 whole entry, one chain of several) above
Puf6p, sequence (Q04373 2-656): as the sequence (Q04373 2-656, chain 1 of 2) above
Puf6p;She2p, sequence (Q04373 2-656, chain 1 of 2): as above
Puf6p;She2p, sequence (P36068 whole entry, chain 2 of 2): as the sequence (P36068 whole entry, one chain of several) above
She2p (ΔC);She3p, sequence (P36068 1-240, stated change not applied, one chain of several): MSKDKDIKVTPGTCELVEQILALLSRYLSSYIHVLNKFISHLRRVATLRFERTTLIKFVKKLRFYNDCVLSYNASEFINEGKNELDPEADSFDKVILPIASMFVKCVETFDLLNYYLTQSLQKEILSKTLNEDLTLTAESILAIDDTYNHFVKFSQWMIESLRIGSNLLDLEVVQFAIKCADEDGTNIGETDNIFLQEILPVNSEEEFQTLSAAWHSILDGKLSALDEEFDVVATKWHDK
She2p (ΔhE), sequence (P36068 other isoform, or with tags, fused parts or gaps del174-183 | mutant): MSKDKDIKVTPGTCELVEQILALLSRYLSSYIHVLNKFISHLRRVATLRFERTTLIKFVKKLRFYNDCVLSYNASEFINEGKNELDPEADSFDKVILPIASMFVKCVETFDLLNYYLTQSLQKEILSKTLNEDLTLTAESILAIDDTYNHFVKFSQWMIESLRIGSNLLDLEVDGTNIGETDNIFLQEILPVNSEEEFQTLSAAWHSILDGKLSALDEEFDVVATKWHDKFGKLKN

Turning to UUAUCCAUUGCACUCCGGAUGU (structured_RNA) [U1 snRNA hairpin II], in the series with She2p [1], the Kd – broadly, the free concentration of one partner at which half of the binding sites on the other are occupied at equilibrium, for simple one-to-one binding – is approximately 1330 nM.

Turning to CGAAGAUGAAAAUGAUCACGAGAGAGAUCCCGAACAAUUUUCAGAAUUUG (structured_RNA) [EAR1 zip code], the Kd with She2p;She3p [2] is approximately 25 nM. Further, the binding result in the series with Puf6p (stem-loop) and with She3p [3] was “binds” throughout.

B1: Poly(A)60 (ssRNA)
RNA: AAAAAAAAAAAAAAAAAAAAAAAAAAAAAAAAAAAAAAAAAAAAAAAAAAAAAAAAAAAA
On to B1, for which the binding result with Puf6p is “binds”.

B2: ASH1 E1 (structured_RNA)
RNA: AAGACUAUGUUAAAAUACGCGAAGAAGUGGCUCAUUUCAAGCCAUUAAGUAUACCCAACUUAACUAAUAAUCAAAAUAA
Turning to B2, the Kd with She2p;She3p [2] was approximately 25 nM. Further, the binding result in the series with She3p [4] is given as “binds”.

B3: ASH1 E2B (domain 1) (structured_RNA)
RNA: AUCUUCAUCUCCAUCUCCCUCCACACCGACGAAAAGUGGCAAGAUGAGAUCAAGAUCA
On to B3, for which the Kd with She2p;She3p [2] was approximately 25 nM.

B4: ASH1 E3-51 (structured_RNA)
RNA: AUGGAUAACUGAAUCUCUUUCAACUAAUAAGAGACAUUAUCACGAAACAAU
As to B4, the Kd in the series with She2p;She3p [5] was approximately 25 nM. Besides, the binding result with She2p [6] and with She3p [7] was “binds” throughout.

B5: ASH1 E2A (structured_RNA)
RNA: UUGCGAAUAGAGACAUUCUAUCGAACAAUUCCAAAUCUAAUGUAAGGAAACCAUCUAAGAACAAAAUCUCAAAGCAA
In the case of B5, the Kd with She2p;She3p [2] was approximately 25 nM. Moreover, the binding result with She3p [4] was “binds”.

Take CGAGCCUGGGAGCUCG (structured_RNA) [HIV-1 TAR (16 bases)]: the dissociation constant (Kd) with She2p [1] was approximately 1330 nM.

B6: E3-118-tRNA (structured_RNA)
RNA: GGCUACGUAGCUCAGUUGGUUAGAGCAGCGGCCGGAGACAGUAGAGAAUUGAUACAUGGAUAACUGAAUCUCUUUCAACUAAUAAGAGACAUUAUCACGAAACAAUUGUACAUUUCUCUCCUUGUCUGUGCUAAAUAAACUACAAAUAAAAACCGCGGGUCACAGGUUCGAAUCCCGUCGUAGCCACCA
Regarding B6, the binding result with She2p (ΔC);She3p, in the series with She2p;She3p [8], in the series with She2p (ΔhE), in the series with Puf6p;She2p and in the series with Puf6p;She2p;She3p was “binds” each time.

B7: HIV-1 TAR (57 bases) (structured_RNA)
RNA: GGUCUCUCUGGUUAGACCAGAUCUGAGCCUGGGAGCUCUCUGGCUAACUAGGGAACC
Consider B7, for which the Kd with She2p [1] is approximately 1330 nM.
